# Experimental data: patent US12533321B2, “Polypeptide formulations for oral delivery” (Bhami's Research Laboratory, Pvt. Ltd., priority 2022, dated 2026)
# What was measured:
# Type in all cases: in vivo, Minipigs
# [1] = Pharmacokinetics of adalimumab in albumin crystal capsule (Vitamin E) vs IV, plasma adalimumab by ELISA; design: Mean adalimumab levels: unit not given here; conditions: 12 mg; for Mean adalimumab levels: plasma, Pigs
# Source text: The microparticle of albumin crystals containing adalimumab was then lyophilized after washing with cold isopropanol. […] The capsule was then closed.
# (§1) Pigs in the oral treatment group was either fasted overnight or fed prior to the test sample administration. […] The time of dosage of each animal was noted. […] An antibody, anti-adalimumab was pre-coated onto a 96-well plate. […] The intensity of the yellow color is proportional to the adalimumab amount bound on the plate.
# [2] = Pharmacokinetics of adalimumab in albumin crystal sugar truffle shell vs IV, plasma adalimumab by ELISA; design: Mean adalimumab levels: unit not given here; conditions: 12 mg; for Mean adalimumab levels: plasma, Pigs
# Source text: The microparticle of albumin crystals containing adalimumab was then lyophilized after washing with cold isopropanol.
# as §1
# [3] = Pharmacokinetics of hGH in albumin crystal sugar truffle shell vs IV, plasma hGH by ELISA; conditions: 0.33 mg; for Mean hGH levels: plasma, Pigs
# Source text: The microparticle of albumin crystals containing hGH was then lyophilized after washing with cold isopropanol.
# as §1, with “anti-hGH” for “anti-adalimumab”, “hGH” for “adalimumab”
# [4] = Pharmacokinetics of hGH in albumin crystal capsule (Vitamin E) vs IV, plasma hGH by ELISA
# Source text: The microparticle of albumin crystals containing hGH was then lyophilized after washing with cold isopropanol. […] The capsule was then closed.
# as §1, with “anti-hGH” for “anti-adalimumab”, “hGH” for “adalimumab”
substance,measurement,setting,value
adalimumab,AUC 0-inf_obs,[1]; Minipigs,2387.704908 µg·h/mL
same,AUC 0-inf_pred,[1]; Minipigs,2433.025437 µg·h/mL
same,AUC t-inf_obs,[1]; Minipigs,1464.822434 µg·h/mL
same,AUC t-inf_pred,[1]; Minipigs,1510.142963 µg·h/mL
same,AUC(0-t),[1]; Minipigs,922.8824739 µg·h/mL
same,AUMC 0-inf_obs,[1]; Minipigs,476541890.8 ng/ml * h^2
same,AUMC 0-inf_pred,[1]; Minipigs,490022798.4 ng/ml * h^2
same,AUMC 0-t,[1]; Minipigs,40820243.03 ng/ml * h^2
same,AUMC 0-t/0-inf_obs,[1]; Minipigs,0.08566
same,AUMC 0-t/0-inf_pred,[1]; Minipigs,0.0833
same,AUMC t-inf_obs,[1]; Minipigs,435721647.8 ng/ml * h^2
same,AUMC t-inf_pred,[1]; Minipigs,449202555.4 ng/ml * h^2
same,C0,[1]; Minipigs,8311 ng/mL
same,Cl_obs,[1]; Minipigs,5.026E−06 (mg)/(ng/ml)/h
same,Cl_pred,[1]; Minipigs,4.932E−06 (mg)/(ng/ml)/h
same,Clast_obs,[1]; Minipigs,7271 ng/mL
same,Clast_pred,[1]; Minipigs,7496 ng/mL
same,Cmax,[1]; Minipigs,12110.42857 ng/mL
same,Lambda_z,[1]; Minipigs,0.00496 h⁻¹
same,MRT 0-inf_obs,[1]; Minipigs,199.6 h
same,MRT 0-inf_pred,[1]; Minipigs,201.4 h
same,MRT 0-t,[1]; Minipigs,44.23 h
same,Tlast,[1]; Minipigs,96 h
same,Tmax,[1]; Minipigs,2 h
same,Vss_obs,[1]; Minipigs,0.001003 (mg)/(ng/ml)
same,Vss_pred,[1]; Minipigs,0.0009934 (mg)/(ng/ml)
same,Vz_obs,[1]; Minipigs,0.001012 (mg)/(ng/ml)
same,Vz_pred,[1]; Minipigs,0.0009936 (mg)/(ng/ml)
same,t½,[1]; Minipigs,139.6393 h
same,Mean adalimumab levels,[1]; 0 hrs,8311.04
same,Mean adalimumab levels,[1]; 0.08 hrs,11638.36
same,Mean adalimumab levels,[1]; 0.5 hrs,11171.29
same,Mean adalimumab levels,[1]; 1 hrs,11637.57
same,Mean adalimumab levels,[1]; 2 hrs,11541.29
same,Mean adalimumab levels,[1]; 4 hrs,12110.43
same,Mean adalimumab levels,[1]; 8 hrs,11914.71
same,Mean adalimumab levels,[1]; 24 hrs,11552.57
same,Mean adalimumab levels,[1]; 48 hrs,10162.00
same,Mean adalimumab levels,[1]; 72 hrs,9803.00
same,Mean adalimumab levels,[1]; 96 hrs,8772.00
same,AUC 0-inf_obs,[2]; Minipigs,2387.704908 µg·h/mL
same,AUC 0-inf_pred,[2]; Minipigs,2433.025437 µg·h/mL
same,AUC t-inf_obs,[2]; Minipigs,1464.822434 µg·h/mL
same,AUC t-inf_pred,[2]; Minipigs,1510.142963 µg·h/mL
same,AUC(0-t),[2]; Minipigs,922.8824739 µg·h/mL
same,AUMC 0-inf_obs,[2]; Minipigs,476541890.8 ng/ml * h^2
same,AUMC 0-inf_pred,[2]; Minipigs,490022798.4 ng/ml * h^2
same,AUMC 0-t,[2]; Minipigs,40820243.03 ng/ml * h^2
same,AUMC 0-t/0-inf_obs,[2]; Minipigs,0.08566
same,AUMC 0-t/0-inf_pred,[2]; Minipigs,0.0833
same,AUMC t-inf_obs,[2]; Minipigs,435721647.8 ng/ml * h^2
same,AUMC t-inf_pred,[2]; Minipigs,449202555.4 ng/ml * h^2
same,C0,[2]; Minipigs,8311 ng/mL
same,Cl_obs,[2]; Minipigs,5.026E−06 (mg)/(ng/ml)/h
same,Cl_pred,[2]; Minipigs,4.932E−06 (mg)/(ng/ml)/h
same,Clast_obs,[2]; Minipigs,7271 ng/mL
same,Clast_pred,[2]; Minipigs,7496 ng/mL
same,Cmax,[2]; Minipigs,12110.42857 ng/mL
same,Lambda_z,[2]; Minipigs,0.00496 h⁻¹
same,MRT 0-inf_obs,[2]; Minipigs,199.6 h
same,MRT 0-inf_pred,[2]; Minipigs,201.4 h
same,MRT 0-t,[2]; Minipigs,44.23 h
same,Tlast,[2]; Minipigs,96 h
same,Tmax,[2]; Minipigs,2 h
same,Vss_obs,[2]; Minipigs,0.001003 (mg)/(ng/ml)
same,Vss_pred,[2]; Minipigs,0.0009934 (mg)/(ng/ml)
same,Vz_obs,[2]; Minipigs,0.001012 (mg)/(ng/ml)
same,Vz_pred,[2]; Minipigs,0.0009936 (mg)/(ng/ml)
same,t½,[2]; Minipigs,139.6393 h
same,Mean adalimumab levels,[2]; 0 hrs,8311.04
same,Mean adalimumab levels,[2]; 0.08 hrs,11638.36
same,Mean adalimumab levels,[2]; 0.5 hrs,11171.29
same,Mean adalimumab levels,[2]; 1 hrs,11637.57
same,Mean adalimumab levels,[2]; 2 hrs,11541.29
same,Mean adalimumab levels,[2]; 4 hrs,12110.43
same,Mean adalimumab levels,[2]; 8 hrs,11914.71
same,Mean adalimumab levels,[2]; 24 hrs,11552.57
same,Mean adalimumab levels,[2]; 48 hrs,10162.00
same,Mean adalimumab levels,[2]; 72 hrs,9803.00
same,Mean adalimumab levels,[2]; 96 hrs,8772.00
"hGH: human growth hormone (human recombinant), given IV",AUC 0-inf_obs,[3]; Minipigs,0.160057765 µg·h/mL
same,AUC 0-inf_pred,[3]; Minipigs,0.158135382 µg·h/mL
same,AUC t-inf_obs,[3]; Minipigs,0.005998634 µg·h/mL
same,AUC t-inf_pred,[3]; Minipigs,0.004076251 µg·h/mL
same,AUC(0-t),[3]; Minipigs,0.154059131 µg·h/mL
same,AUMC 0-inf_obs,[3]; Minipigs,1696005.242 pg/ml * h^2
same,AUMC 0-inf_pred,[3]; Minipigs,1578826.575 pg/ml * h^2
same,AUMC 0-t,[3]; Minipigs,1330359.118 pg/ml * h^2
same,AUMC 0-t/0-inf_obs,[3]; Minipigs,0.784
same,AUMC 0-t/0-inf_pred,[3]; Minipigs,0.843
same,AUMC t-inf_obs,[3]; Minipigs,365646.123 pg/ml * h^2
same,AUMC t-inf_pred,[3]; Minipigs,248467.457 pg/ml * h^2
same,C0,[3]; Minipigs,18.14454 ng/mL
same,Cl_obs,[3]; Minipigs,0.000 (mg)/(pg/ml)/h
same,Clast_obs,[3]; Minipigs,0.46304 ng/mL
same,Clast_pred,[3]; Minipigs,0.31465 ng/mL
same,Cmax,[3]; Minipigs,22.5132 ng/mL
same,Lambda_z,[3]; Minipigs,0.077 h⁻¹
same,MRT 0-inf_obs,[3]; Minipigs,10.596 h
same,MRT 0-inf_pred,[3]; Minipigs,9.984 h
same,MRT 0-t,[3]; Minipigs,8.635 h
same,Tlast,[3]; Minipigs,48.000 h
same,Tmax,[3]; Minipigs,0.500 h
same,Vss_obs,[3]; Minipigs,0.000 (mg)/(pg/ml)
same,Vz_obs,[3]; Minipigs,0.000 (mg)/(pg/ml)
same,t½,[3]; Minipigs,8.980 h
same,Mean hGH levels,[3]; 0 hrs,18144.54 ± 1619.64 pg/mL
same,Mean hGH levels,[3]; 0.08 hrs,20014.87 ± 620.32 pg/mL
same,Mean hGH levels,[3]; 0.5 hrs,22513.2 ± 562.85 pg/mL
same,Mean hGH levels,[3]; 1 hrs,22130.7 ± 728.54 pg/mL
same,Mean hGH levels,[3]; 4 hrs,14910.13 ± 2908.87 pg/mL
same,Mean hGH levels,[3]; 8 hrs,1159.19 ± 226.15 pg/mL
same,Mean hGH levels,[3]; 24 hrs,1495.55 ± 291.77 pg/mL
same,Mean hGH levels,[3]; 48 hrs,463.04 ± 90.34 pg/mL
same,Mean hGH levels,[4]; 0 h,18144.54 ± 1619.64 pg/mL
same,AUC 0-inf_obs,"[4]; 0.33 mg, Minipigs",0.160057765 µg·h/mL
same,AUC 0-inf_pred,"[4]; 0.33 mg, Minipigs",0.158135382 µg·h/mL
same,AUC t-inf_obs,"[4]; 0.33 mg, Minipigs",0.005998634 µg·h/mL
same,AUC t-inf_pred,"[4]; 0.33 mg, Minipigs",0.004076251 µg·h/mL
same,AUC(0-t),"[4]; 0.33 mg, Minipigs",0.154059131 µg·h/mL
same,AUMC 0-inf_obs,"[4]; 0.33 mg, Minipigs",1696005.242 pg/ml * h^2
same,AUMC 0-inf_pred,"[4]; 0.33 mg, Minipigs",1578826.575 pg/ml * h^2
same,AUMC 0-t,"[4]; 0.33 mg, Minipigs",1330359.118 pg/ml * h^2
same,AUMC 0-t/0-inf_obs,"[4]; 0.33 mg, Minipigs",0.784
same,AUMC 0-t/0-inf_pred,"[4]; 0.33 mg, Minipigs",0.843
same,AUMC t-inf_obs,"[4]; 0.33 mg, Minipigs",365646.123 pg/ml * h^2
same,AUMC t-inf_pred,"[4]; 0.33 mg, Minipigs",248467.457 pg/ml * h^2
same,C0,"[4]; 0.33 mg, Minipigs",18.14454 ng/mL
same,Cl_obs,"[4]; 0.33 mg, Minipigs",0.000 (mg)/(pg/ml)/h
same,Clast_obs,"[4]; 0.33 mg, Minipigs",0.46304 ng/mL
same,Clast_pred,"[4]; 0.33 mg, Minipigs",0.31465 ng/mL
same,Cmax,"[4]; 0.33 mg, Minipigs",22.5132 ng/mL
same,Lambda_z,"[4]; 0.33 mg, Minipigs",0.077 h⁻¹
same,MRT 0-inf_obs,"[4]; 0.33 mg, Minipigs",10.596 h
same,MRT 0-inf_pred,"[4]; 0.33 mg, Minipigs",9.984 h
same,MRT 0-t,"[4]; 0.33 mg, Minipigs",8.635 h
same,Tlast,"[4]; 0.33 mg, Minipigs",48.000 h
same,Tmax,"[4]; 0.33 mg, Minipigs",0.500 h
same,Vss_obs,"[4]; 0.33 mg, Minipigs",0.000 (mg)/(pg/ml)
same,Vz_obs,"[4]; 0.33 mg, Minipigs",0.000 (mg)/(pg/ml)
same,t½,"[4]; 0.33 mg, Minipigs",8.980 h
same,Mean hGH levels,[4]; 0.08 h,20014.87 ± 620.32 pg/mL
same,Mean hGH levels,[4]; 0.5 h,22513.2 ± 562.85 pg/mL
same,Mean hGH levels,[4]; 1 h,22130.7 ± 728.54 pg/mL
same,Mean hGH levels,[4]; 4 h,14910.13 ± 2908.87 pg/mL
same,Mean hGH levels,[4]; 8 h,1159.19 ± 226.15 pg/mL
same,Mean hGH levels,[4]; 24 h,1495.55 ± 291.77 pg/mL
same,Mean hGH levels,[4]; 48 h,463.04 ± 90.34 pg/mL
